This passage reports response (fold pull down) and response results from publication PMC5384083.

Test [1] addresses Retinoblastoma protein (Rb), endogenous (UniProt P06400). The experiment in a line: co-immunoprecipitation (IP GFP, western blot Rb) quantified with image J. The note with it: MCF7 cells; 3 independent experiments; parent: est. 32; read off a plot. For orientation: In western blotting, separated proteins are transferred to a membrane and probed.
The target in test [2] is CBP, endogenous (UniProt Q92793). In words: co-immunoprecipitation (IP GFP, western blot CBP) quantified with image J. The following applies: MCF7 cells; 3 independent experiments; parent: est. 25; read off a plot.
Chain of UniProt Q92793 (Q92793 whole entry): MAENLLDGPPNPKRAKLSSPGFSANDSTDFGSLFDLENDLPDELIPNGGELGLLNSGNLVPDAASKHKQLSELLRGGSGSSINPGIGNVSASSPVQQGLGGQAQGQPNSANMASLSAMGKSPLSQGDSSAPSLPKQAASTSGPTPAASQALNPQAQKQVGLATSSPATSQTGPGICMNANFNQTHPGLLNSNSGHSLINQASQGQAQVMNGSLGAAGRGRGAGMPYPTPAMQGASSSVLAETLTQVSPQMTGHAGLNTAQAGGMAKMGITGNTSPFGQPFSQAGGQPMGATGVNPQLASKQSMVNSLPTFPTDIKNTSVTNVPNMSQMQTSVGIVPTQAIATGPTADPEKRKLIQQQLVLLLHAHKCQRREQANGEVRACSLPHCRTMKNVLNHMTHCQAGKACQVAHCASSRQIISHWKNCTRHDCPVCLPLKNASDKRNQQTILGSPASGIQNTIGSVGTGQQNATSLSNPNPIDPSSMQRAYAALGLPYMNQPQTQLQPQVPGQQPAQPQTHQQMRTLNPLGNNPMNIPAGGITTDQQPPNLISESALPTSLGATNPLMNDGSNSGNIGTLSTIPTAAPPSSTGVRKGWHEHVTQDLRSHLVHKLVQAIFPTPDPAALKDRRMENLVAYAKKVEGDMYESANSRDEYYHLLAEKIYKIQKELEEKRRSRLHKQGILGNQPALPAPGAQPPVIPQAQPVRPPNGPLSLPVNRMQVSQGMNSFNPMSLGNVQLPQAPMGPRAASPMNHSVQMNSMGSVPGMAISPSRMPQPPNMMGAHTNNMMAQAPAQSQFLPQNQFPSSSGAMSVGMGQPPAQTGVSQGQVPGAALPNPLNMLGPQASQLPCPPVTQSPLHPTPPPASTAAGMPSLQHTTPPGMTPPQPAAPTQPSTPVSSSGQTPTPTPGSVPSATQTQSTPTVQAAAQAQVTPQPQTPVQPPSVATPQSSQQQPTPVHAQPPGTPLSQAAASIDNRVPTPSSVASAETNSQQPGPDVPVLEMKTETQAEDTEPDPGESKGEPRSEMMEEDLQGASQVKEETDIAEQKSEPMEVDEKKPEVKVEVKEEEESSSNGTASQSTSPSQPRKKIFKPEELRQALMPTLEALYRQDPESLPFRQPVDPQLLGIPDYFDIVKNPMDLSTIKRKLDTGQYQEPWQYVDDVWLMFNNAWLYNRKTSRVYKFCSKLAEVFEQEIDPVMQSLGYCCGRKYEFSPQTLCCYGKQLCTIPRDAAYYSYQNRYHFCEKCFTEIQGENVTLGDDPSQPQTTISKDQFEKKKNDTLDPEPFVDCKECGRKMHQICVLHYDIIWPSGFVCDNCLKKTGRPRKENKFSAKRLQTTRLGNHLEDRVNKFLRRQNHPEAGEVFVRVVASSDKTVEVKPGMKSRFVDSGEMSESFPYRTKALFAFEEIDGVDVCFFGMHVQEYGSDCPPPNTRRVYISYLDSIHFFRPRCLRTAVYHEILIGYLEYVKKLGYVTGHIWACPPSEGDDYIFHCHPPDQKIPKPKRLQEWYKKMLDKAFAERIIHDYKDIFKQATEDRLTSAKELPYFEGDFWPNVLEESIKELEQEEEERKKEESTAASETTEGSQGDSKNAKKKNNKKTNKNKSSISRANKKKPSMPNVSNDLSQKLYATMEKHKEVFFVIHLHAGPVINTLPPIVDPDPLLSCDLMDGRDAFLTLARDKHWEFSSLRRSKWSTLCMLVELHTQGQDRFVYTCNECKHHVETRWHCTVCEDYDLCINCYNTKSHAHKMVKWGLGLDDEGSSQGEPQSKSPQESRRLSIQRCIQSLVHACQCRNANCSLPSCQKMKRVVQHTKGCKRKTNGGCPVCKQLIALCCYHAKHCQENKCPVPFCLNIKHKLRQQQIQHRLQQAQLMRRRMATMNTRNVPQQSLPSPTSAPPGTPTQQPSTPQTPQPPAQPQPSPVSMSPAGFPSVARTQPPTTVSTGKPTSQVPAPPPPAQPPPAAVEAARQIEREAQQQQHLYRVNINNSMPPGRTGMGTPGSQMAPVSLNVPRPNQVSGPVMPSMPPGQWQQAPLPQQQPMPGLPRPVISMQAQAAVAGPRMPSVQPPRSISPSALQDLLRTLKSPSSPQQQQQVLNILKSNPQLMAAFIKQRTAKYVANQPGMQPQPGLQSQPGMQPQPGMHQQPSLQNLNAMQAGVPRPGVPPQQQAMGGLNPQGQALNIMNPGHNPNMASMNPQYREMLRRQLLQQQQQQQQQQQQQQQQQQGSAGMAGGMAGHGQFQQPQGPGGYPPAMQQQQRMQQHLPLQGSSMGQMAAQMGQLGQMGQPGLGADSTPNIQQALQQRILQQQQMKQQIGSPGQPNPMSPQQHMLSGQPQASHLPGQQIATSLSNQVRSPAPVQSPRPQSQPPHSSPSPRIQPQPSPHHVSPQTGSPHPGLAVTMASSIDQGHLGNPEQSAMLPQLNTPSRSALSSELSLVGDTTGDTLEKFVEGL
In test [3] the target is Retinoblastoma protein (Rb), endogenous (UniProt P06400). In words: co-immunoprecipitation (IP GFP, western blot Rb), band intensity given. The following applies: MCF7 cells.
The target of test [4] is CBP, endogenous (UniProt Q92793). The experiment in a line: co-immunoprecipitation (IP GFP, western blot CBP), band intensity given. The following applies: MCF7 cells.
A further test addresses DNMT3b, endogenous (UniProt Q9UBC3). In words: co-immunoprecipitation (IP GFP, western blot DNMT3b), band intensity given. The following applies: MCF7 cells.

Chain of UniProt P06400 (P06400 whole entry): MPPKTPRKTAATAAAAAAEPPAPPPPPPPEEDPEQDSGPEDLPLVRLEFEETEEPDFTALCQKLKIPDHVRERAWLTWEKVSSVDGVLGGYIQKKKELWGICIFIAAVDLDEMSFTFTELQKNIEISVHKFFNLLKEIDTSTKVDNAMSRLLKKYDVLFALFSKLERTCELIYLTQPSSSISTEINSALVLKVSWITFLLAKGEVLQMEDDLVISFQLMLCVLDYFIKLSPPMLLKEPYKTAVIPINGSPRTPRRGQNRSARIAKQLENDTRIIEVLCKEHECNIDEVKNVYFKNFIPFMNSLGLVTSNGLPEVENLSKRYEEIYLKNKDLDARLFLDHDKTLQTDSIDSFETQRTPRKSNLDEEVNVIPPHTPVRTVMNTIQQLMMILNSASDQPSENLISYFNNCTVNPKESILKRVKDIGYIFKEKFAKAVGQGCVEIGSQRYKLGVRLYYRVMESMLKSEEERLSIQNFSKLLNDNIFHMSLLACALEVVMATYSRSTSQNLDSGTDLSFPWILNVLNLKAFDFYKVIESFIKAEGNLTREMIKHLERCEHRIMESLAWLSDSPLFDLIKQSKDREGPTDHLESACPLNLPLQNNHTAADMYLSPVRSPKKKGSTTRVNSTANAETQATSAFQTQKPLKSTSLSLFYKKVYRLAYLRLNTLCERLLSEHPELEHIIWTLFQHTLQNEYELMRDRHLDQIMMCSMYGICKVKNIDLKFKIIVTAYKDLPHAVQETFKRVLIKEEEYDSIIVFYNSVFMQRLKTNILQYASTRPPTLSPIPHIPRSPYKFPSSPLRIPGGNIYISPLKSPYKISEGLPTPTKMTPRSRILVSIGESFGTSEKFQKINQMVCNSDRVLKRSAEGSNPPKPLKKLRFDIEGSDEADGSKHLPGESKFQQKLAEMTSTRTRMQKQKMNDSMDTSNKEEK

Consider GFP-FoxM1 full length (FL) T596A, for which the response (fold pull down) was 38 in test [1] and 8.4 in the test with CBP, endogenous [2]. In addition, the response in test [3] turned out to be 30.4; with CBP, endogenous [4], 5.1; with DNMT3b, endogenous, 112.

As for GFP-FoxM1 full length (FL) S715A; S724A, the response (fold pull down) was 36 in test [1] and 9.7 with CBP, endogenous [2]. For the same substance, the response in test [3] is 24.7; in the test with CBP, endogenous [4], 6; with DNMT3b, endogenous, 90.

Take GFP-FoxM1 full length (FL) S715D; S724D: the response (fold pull down) stood at 5.8 in test [1] and 31 in the test with CBP, endogenous [2]. Besides, the response in test [3] stood at 6.7; with CBP, endogenous [4] it was 21; with DNMT3b, endogenous, 32.3.
